Measured values from patent publication US20250197505A1.

Tests used:
[1] = molecular target: human CD94 expressed on cells (human primary NK cells in PBMCs; HEK cells expressing human CD94) (human) (UniProt Q13241); test: flow cytometry, PE HLA-E tetramer on NK cells of PBMCs pre-incubated with antibody; competitor HLA-E tetramer
[2] = molecular target: human CD94 expressed on cells (human primary NK cells in PBMCs; HEK cells expressing human CD94) (human) (UniProt Q13241); test: flow cytometry titration on CD3-CD56+ NK cells in healthy donor PBMCs; 'Affinity on Human NK Cells'; the filing derives these affinities as EC50 of titration curves (the 2.6nM of 18H3 is labelled EC50 in FIG. 1)
[3] = molecular target: human CD94 expressed on cells (human primary NK cells in PBMCs; HEK cells expressing human CD94) (human) (UniProt Q13241); test: HLA-E tetramer blocking assay, flow cytometry on CD3-CD56+ NK cells in healthy donor PBMCs; antibody at one saturating concentration, blocked ligand PE-labelled HLA-E tetramer; percent blocking = 100-((percent HLA-E positive with antibody)/(percent HLA-E positive with isotype)*100)
[4] = molecular target: human CD94 expressed on cells (human primary NK cells in PBMCs; HEK cells expressing human CD94) (human) (UniProt Q13241); test: competition assay, flow cytometry on CD3-CD56+ NK cells in healthy donor PBMCs; HP-3B1 titrated in the presence of Human IgG1 control (no competitor)
[5] = molecular target: human CD94 expressed on cells (human primary NK cells in PBMCs; HEK cells expressing human CD94) (human) (UniProt Q13241); test: as above; remark: listed apart in the source
[6] = molecular target: human CD94 expressed on cells (human primary NK cells in PBMCs; HEK cells expressing human CD94) (human) (UniProt Q13241); test: competition assay, flow cytometry on CD3-CD56+ NK cells in healthy donor PBMCs; HP-3B1 titrated in the presence of Mouse IgG1 control (no competitor)
[7] = molecular target: human CD94 expressed on cells (human primary NK cells in PBMCs; HEK cells expressing human CD94) (human) (UniProt Q13241); test: cell-based or functional assay

human CD94 expressed on cells (human primary NK cells in PBMCs; HEK cells expressing human CD94) (human), sequence (Q13241 whole entry): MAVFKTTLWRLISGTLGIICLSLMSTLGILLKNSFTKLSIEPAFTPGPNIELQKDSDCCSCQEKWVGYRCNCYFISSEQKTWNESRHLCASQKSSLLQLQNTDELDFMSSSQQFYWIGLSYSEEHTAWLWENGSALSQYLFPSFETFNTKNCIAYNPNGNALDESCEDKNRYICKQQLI

Row | Substance | percent HLA-E blocking [1] [%] | EC50 [2] [nM] | HLA-E Blocking [3] [%] | EC50 (read off the curve) [4] [nM] | EC50 (read off the curve) [5] [nM] | EC50 (read off the curve) [6] [nM] | percent decrease in MFI (antibody internalization assay), comparing 0.5 hours to 24 hours at 37° C. [7] [%]
1 | commercial anti-CD94 antibody clone 131412 | > 40 | 11 | 40 |  |  |  | 
2 | commercial anti-CD94 antibody clone HP-3B1 | > 40 | 3 | 99.8 | 2 | 3 | 2 | 
3 | commercial anti-CD94 antibody clone DX22 | > 40 | 0.15 | 99 |  |  |  | 56
4 | commercial anti-CD94 antibody clone HP-3D9 | > 40 | 0.07 | 99 |  |  |  | 54
5 | commercial anti-CD94 antibody clone 12K45 | > 40 | 7 | 47 |  |  |  | 
